Experimental data from PMC3326314 (Nucleic Acids Research, 2011).
Numbering of substitutions follows the chain as printed.

Columns and labels:
Rif2 full length = target: T1, Rif2 full length (UniProt Q06208 1-395); test: NMR titration
T1 sequence (looked up): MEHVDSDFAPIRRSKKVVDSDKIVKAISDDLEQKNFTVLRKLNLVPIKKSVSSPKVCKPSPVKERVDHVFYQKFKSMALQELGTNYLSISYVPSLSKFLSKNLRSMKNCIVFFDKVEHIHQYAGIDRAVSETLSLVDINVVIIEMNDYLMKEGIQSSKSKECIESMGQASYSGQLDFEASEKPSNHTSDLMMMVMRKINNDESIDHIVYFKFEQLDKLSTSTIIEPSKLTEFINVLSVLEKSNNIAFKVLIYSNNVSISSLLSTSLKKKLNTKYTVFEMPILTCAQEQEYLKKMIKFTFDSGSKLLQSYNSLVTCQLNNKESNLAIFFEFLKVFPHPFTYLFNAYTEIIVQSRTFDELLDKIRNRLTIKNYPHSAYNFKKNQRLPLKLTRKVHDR

Rap1Δ[591-597] = target: T2, Rap1Δ[591-597] (Saccharomyces cerevisiae, UniProt P11938 1-827, del591-597); test: EMSA
T2 sequence: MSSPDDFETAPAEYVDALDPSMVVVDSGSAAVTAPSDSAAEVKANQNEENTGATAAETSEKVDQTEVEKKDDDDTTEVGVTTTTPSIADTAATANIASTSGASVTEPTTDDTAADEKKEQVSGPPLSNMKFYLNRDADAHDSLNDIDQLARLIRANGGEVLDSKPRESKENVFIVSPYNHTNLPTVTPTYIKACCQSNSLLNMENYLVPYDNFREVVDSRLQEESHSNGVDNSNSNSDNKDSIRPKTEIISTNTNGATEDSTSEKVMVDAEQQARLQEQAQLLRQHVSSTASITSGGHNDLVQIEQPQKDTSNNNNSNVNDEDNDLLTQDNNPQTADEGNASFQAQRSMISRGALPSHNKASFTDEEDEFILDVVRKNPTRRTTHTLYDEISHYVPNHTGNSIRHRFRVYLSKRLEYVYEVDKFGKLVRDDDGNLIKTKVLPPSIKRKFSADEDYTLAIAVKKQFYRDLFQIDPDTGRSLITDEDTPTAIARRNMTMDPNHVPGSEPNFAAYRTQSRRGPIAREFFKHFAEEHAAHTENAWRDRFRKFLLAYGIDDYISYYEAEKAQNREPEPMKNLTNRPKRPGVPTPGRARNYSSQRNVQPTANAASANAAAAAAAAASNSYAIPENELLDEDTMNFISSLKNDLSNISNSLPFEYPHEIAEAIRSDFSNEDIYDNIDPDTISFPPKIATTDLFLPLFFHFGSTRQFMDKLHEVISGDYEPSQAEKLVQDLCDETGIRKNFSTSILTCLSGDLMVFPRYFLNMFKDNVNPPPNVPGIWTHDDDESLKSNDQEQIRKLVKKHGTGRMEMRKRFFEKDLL

Rap1[Y592A-K597A] = target: T3, Rap1[Y592A-K597A] (Saccharomyces cerevisiae, UniProt P11938 1-827, Y592A;K597A); test: EMSA
T3 sequence: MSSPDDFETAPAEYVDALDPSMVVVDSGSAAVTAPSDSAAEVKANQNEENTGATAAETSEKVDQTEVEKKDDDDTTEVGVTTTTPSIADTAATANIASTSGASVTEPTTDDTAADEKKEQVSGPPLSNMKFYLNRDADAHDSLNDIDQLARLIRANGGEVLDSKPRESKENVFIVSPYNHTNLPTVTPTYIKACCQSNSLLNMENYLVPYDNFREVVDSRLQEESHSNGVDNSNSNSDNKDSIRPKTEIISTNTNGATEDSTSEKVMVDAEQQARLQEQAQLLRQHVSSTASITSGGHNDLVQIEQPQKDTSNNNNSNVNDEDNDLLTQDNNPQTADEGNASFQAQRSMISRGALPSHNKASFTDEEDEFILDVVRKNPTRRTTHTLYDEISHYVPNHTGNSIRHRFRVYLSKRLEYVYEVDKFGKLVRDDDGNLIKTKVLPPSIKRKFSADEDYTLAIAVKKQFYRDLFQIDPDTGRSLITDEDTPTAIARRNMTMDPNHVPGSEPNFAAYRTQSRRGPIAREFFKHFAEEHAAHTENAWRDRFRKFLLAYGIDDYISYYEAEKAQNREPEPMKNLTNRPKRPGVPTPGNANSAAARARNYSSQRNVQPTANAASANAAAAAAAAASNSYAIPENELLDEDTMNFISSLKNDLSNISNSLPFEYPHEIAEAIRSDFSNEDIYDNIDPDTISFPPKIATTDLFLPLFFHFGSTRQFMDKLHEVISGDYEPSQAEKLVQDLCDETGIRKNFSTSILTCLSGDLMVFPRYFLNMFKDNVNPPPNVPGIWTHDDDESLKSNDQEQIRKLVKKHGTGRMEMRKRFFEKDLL

Rap1[358-827] [1] = target: T4, Rap1[358-827] (Saccharomyces cerevisiae, UniProt P11938 358-827); test: X-ray crystallography
T4 sequence: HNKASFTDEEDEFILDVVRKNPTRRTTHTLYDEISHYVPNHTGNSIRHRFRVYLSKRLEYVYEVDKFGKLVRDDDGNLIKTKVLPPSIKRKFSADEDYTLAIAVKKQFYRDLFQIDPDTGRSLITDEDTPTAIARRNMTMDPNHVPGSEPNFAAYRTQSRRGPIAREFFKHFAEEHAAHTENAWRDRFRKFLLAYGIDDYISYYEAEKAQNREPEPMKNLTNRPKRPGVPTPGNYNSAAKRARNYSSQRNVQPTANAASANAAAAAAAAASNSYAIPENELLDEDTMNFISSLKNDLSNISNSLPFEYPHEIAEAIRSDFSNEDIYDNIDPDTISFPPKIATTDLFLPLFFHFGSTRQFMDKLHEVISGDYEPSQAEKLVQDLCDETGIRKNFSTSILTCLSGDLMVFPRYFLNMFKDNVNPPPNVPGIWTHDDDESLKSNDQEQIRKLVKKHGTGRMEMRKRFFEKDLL

Rap1[358-827] [2] = target: T4, Rap1[358-827]; test: SAXS and AUC
Rap1 WT (Rap1-fl) = target: T5, Rap1 WT (Rap1-fl) (Saccharomyces cerevisiae, UniProt P11938 1-827); test: SAXS and AUC
T5 sequence: T3 sequence with A592Y, A597K

Rap1[117-827] = target: T6, Rap1[117-827] (Saccharomyces cerevisiae, UniProt P11938 117-827); test: SAXS and AUC
T6 sequence: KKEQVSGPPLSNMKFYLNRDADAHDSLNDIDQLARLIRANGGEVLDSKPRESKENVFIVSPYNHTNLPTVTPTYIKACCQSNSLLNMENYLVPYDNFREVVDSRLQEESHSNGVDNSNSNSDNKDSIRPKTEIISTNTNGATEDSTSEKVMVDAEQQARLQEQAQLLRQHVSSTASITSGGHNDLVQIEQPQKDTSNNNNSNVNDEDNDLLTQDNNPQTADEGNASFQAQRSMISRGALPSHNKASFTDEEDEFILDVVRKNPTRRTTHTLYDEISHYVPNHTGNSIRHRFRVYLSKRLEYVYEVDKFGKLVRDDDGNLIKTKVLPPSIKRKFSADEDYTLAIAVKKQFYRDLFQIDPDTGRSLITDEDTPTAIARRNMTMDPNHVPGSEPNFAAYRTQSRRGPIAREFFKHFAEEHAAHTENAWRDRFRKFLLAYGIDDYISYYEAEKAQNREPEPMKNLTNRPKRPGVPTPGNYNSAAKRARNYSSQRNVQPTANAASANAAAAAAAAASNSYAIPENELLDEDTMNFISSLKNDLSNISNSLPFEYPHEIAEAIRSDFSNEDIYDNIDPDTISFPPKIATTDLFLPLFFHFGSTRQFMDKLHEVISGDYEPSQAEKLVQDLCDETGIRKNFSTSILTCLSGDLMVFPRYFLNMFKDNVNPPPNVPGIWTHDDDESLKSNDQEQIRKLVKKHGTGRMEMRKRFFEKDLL

B1: Rap1[675-827] (domain or fragment, S. cerevisiae, UniProt P11938 675-827, looked up)
chain: SDFSNEDIYDNIDPDTISFPPKIATTDLFLPLFFHFGSTRQFMDKLHEVISGDYEPSQAEKLVQDLCDETGIRKNFSTSILTCLSGDLMVFPRYFLNMFKDNVNPPPNVPGIWTHDDDESLKSNDQEQIRKLVKKHGTGRMEMRKRFFEKDLL
- binding result (Rif2 full length): binds

B2: 21-mer telomeric DNA duplex (ITC and EMSA) (dsDNA)
DNA 1: TCCTGGTGTGTGGGTGTGCGG
DNA 2: GCACACCCACACACCAGGACC
- binding result (Rap1Δ[591-597]): binds
- binding result (Rap1[Y592A-K597A]): binds

B3: 31-mer crystallography duplex (dsDNA)
DNA 1: ACCTGGTGTGTGGGTGTTGTGTGGTGTTCAC
DNA 2: GTGTGAACACCACACAACACCCACACACCAG
- binding result (Rap1[358-827] [1]): binds

B4: 20-mer DNA duplex (AUC and SAXS) (dsDNA)
DNA 1: TCCTGGTGTGTGGGTGTGCG
DNA 2: GACGCACACCCACACACCAG
- binding result (Rap1[358-827] [2]): binds
- binding result (Rap1 WT (Rap1-fl)): binds
- binding result (Rap1[117-827]): binds
